Measured values taken from the supplement of paper PMC10065799, “High-throughput profiling of sequence recognition by tyrosine kinases and SH2 domains using bacterial peptide display” (eLife, 2023).

Columns and labels:
EPHB1 = EPHB1 (UniProt P54762); test: phosphorylation enrichment, bacterial display (enrichment ratio); higher = better substrate or ligand; peptides without Tyr show the background
Hck = Hck (UniProt P08631); test: as above
FGFR1 = FGFR1 (UniProt P11362); test: as above
EPHB2 = EPHB2 (UniProt P29323); test: as above
c-Src = test: as above
Jak2 = Jak2 (UniProt O60674); test: as above
Fer (mouse) = test: as above
Fyn = Fyn (UniProt P06241); test: as above
AncSZ = test: as above
FGFR3 = FGFR3 (UniProt P22607); test: as above
MERTK = MERTK (UniProt Q12866); test: as above
Fes = Fes (UniProt P07332); test: as above
c-Abl (mouse) = test: as above
Grb2 SH2 = Grb2 SH2 (UniProt P62993); test: SH2 binding enrichment of the phosphorylated peptide, bacterial display (enrichment ratio); higher = better substrate or ligand; peptides without Tyr show the background
SHP2-C SH2 = test: as above
c-Src SH2 = test: as above
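Throughout, for SH2 binding enrichment of the phosphorylated peptide, bacterial display: peptide library displayed on the E. coli surface as eCPX fusions, selected cells deep-sequenced, score is each peptide's frequency after selection divided by its frequency in the input.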
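Throughout, for phosphorylation enrichment, bacterial display: 11-residue human phosphosite peptides and single-mutation variants displayed on the E. coli surface, counted by deep sequencing, each peptide's frequency after selection divided by its frequency in the unselected input library; frequency after pTyr selection over input frequency; kinase dosed for 20-30% of maximal phosphorylation in three min.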

Sequence of Jak2 (O60674 whole entry, looked up): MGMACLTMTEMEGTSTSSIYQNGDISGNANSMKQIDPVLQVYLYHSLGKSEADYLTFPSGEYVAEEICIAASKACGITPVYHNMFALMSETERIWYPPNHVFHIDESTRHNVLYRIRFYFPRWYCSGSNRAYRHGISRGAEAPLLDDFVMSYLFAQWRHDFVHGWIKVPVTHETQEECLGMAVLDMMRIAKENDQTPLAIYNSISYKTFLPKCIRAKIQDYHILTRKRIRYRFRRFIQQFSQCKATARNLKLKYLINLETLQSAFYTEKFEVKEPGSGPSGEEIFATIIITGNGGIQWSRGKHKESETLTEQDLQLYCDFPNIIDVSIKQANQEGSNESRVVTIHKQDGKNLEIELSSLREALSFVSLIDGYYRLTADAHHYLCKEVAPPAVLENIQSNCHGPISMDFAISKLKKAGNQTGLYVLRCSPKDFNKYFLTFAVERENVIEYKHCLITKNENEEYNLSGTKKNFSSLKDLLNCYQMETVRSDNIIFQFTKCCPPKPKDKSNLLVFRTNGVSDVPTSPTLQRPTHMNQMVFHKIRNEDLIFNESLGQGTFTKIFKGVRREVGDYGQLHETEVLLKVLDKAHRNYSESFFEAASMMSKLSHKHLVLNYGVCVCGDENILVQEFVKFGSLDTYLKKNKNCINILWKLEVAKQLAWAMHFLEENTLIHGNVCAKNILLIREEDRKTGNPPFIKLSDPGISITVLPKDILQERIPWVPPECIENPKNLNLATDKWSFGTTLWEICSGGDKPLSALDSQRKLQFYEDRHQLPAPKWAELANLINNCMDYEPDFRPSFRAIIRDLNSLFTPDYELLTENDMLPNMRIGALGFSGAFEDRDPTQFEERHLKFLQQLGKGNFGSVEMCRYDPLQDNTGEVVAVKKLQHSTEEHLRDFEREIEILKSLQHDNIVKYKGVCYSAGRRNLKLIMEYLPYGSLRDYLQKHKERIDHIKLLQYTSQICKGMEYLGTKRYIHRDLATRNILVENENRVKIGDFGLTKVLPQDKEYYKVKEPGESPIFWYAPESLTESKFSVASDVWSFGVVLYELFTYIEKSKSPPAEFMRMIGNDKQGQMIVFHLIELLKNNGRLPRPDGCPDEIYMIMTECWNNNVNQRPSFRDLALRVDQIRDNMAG
Sequence of Fes (P07332 whole entry, looked up): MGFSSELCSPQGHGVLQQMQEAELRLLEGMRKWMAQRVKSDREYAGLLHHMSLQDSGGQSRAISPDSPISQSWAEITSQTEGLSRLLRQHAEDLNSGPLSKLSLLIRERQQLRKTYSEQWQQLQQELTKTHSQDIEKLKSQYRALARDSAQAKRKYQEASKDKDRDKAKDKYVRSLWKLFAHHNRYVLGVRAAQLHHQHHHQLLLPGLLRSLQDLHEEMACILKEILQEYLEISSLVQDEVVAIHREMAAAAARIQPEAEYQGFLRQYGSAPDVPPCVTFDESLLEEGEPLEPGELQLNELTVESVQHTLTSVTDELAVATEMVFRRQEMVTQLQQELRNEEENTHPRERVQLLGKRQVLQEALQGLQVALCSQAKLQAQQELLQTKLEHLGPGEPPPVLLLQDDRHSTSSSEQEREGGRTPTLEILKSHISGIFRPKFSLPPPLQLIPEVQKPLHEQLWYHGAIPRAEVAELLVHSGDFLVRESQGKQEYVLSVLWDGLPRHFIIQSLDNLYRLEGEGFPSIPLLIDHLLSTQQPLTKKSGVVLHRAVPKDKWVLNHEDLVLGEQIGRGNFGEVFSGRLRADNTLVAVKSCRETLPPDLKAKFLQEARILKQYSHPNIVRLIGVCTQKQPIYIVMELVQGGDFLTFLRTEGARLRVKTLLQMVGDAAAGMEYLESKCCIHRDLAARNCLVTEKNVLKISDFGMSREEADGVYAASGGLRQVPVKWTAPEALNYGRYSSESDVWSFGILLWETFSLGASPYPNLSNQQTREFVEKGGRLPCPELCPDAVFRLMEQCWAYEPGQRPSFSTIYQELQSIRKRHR
Sequence of Fyn (P06241 whole entry, looked up): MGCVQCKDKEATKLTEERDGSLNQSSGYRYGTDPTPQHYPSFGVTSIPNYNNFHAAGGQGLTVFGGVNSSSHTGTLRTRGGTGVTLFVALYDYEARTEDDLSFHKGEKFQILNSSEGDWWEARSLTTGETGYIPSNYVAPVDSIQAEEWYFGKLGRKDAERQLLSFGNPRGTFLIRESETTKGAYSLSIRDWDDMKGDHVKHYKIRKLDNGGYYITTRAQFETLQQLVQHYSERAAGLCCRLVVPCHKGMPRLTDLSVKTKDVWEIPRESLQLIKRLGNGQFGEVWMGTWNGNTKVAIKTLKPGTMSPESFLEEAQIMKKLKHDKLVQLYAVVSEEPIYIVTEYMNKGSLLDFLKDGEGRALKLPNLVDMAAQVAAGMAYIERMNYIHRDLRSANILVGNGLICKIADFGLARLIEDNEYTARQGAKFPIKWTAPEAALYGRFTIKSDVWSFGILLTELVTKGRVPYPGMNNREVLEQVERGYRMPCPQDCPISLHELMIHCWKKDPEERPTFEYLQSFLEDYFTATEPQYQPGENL
Sequence of Hck (P08631 whole entry, looked up): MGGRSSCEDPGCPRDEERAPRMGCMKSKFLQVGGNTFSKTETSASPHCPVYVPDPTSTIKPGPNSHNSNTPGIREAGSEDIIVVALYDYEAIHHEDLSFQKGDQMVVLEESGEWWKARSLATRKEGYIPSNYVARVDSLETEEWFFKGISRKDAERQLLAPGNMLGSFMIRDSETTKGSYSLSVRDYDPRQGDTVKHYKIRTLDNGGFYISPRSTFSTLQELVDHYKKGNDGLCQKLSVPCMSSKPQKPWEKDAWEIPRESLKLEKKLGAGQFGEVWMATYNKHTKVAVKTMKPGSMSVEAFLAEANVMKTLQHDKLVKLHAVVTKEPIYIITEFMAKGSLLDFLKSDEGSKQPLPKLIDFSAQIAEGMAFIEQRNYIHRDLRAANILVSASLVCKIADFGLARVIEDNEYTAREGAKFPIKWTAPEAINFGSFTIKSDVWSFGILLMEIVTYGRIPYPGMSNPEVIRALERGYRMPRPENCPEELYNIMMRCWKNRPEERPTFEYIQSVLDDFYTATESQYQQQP
Sequence of MERTK (Q12866 whole entry, looked up): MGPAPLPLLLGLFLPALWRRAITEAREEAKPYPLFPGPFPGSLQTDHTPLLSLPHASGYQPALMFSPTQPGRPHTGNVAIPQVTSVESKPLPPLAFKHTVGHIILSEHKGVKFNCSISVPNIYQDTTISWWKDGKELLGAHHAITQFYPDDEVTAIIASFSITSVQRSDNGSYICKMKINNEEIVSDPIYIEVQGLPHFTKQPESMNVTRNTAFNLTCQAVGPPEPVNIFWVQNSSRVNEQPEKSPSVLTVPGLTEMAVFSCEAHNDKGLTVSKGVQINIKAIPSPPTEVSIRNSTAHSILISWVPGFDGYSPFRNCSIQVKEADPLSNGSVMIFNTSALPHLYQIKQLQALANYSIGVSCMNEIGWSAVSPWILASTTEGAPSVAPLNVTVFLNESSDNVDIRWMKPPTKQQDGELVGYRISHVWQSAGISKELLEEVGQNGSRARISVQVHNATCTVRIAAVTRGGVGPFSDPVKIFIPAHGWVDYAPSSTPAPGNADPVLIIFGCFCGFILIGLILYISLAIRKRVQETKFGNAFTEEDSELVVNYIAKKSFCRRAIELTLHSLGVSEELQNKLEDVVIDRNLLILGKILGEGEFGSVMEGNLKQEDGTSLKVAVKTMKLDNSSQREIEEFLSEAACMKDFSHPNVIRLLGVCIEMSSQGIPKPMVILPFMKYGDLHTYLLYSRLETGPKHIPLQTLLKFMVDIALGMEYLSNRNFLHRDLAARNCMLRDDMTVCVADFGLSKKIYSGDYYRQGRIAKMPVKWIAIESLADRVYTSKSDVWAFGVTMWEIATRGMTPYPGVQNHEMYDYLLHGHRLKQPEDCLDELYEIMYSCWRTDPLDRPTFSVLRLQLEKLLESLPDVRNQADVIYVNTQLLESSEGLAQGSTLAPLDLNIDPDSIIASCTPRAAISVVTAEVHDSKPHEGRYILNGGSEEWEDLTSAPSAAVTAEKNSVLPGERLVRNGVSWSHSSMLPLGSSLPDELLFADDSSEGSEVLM
Sequence of Grb2 SH2 (P62993 whole entry, looked up): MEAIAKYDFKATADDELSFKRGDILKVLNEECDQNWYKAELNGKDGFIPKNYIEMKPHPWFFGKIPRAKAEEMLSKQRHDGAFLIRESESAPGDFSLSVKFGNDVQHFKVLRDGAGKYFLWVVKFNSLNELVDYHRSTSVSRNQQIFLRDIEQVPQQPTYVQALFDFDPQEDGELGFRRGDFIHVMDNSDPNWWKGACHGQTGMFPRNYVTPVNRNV
Sequence of FGFR1 (P11362 whole entry, looked up): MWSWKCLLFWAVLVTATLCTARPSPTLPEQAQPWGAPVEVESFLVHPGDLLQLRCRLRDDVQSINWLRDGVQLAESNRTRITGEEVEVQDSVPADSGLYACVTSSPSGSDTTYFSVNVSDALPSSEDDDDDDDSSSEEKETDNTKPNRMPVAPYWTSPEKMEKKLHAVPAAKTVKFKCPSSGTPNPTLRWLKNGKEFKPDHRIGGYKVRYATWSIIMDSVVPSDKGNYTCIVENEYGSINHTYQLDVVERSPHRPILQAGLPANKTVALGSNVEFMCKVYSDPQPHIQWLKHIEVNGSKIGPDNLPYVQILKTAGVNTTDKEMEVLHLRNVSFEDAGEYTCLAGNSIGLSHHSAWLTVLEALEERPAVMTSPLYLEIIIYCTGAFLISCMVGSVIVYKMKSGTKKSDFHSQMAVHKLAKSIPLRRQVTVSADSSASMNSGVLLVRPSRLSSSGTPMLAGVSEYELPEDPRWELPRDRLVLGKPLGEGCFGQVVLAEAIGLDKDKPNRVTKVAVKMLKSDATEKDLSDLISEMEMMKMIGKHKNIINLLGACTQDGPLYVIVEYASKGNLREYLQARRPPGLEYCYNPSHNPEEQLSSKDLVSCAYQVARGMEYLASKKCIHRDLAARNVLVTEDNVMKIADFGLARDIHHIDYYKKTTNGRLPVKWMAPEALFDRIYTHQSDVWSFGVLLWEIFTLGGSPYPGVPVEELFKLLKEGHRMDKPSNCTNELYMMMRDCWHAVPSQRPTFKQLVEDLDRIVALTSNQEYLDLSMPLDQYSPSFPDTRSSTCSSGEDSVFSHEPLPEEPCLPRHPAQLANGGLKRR

Sequence | phosphorylation enrichment (EPHB1) | phosphorylation enrichment (Hck) | phosphorylation enrichment (FGFR1) | phosphorylation enrichment (EPHB2) | phosphorylation enrichment (c-Src) | phosphorylation enrichment (Jak2) | phosphorylation enrichment (Fer (mouse)) | phosphorylation enrichment (Fyn) | phosphorylation enrichment (AncSZ) | phosphorylation enrichment (FGFR3) | phosphorylation enrichment (MERTK) | phosphorylation enrichment (Fes) | phosphorylation enrichment (c-Abl (mouse)) | SH2 binding enrichment (Grb2 SH2) | SH2 binding enrichment (SHP2-C SH2) | SH2 binding enrichment (c-Src SH2)
LDFNEYFRFLN [HPRT1_Y198_D201Y_YF] | 0.592 | 1.08 | 2.7 | 0.924 | 3.62 | 6.54 | 0.562 | 2.25 | 2.34 | 2.1 | 0.573 | 1.29 | 1.6 | 1.49 | 1.2 | 0.719
AASTDYNKRGD [PDHA1_Y242_Y243N] | 0.453 | 0.509 | 0.452 | 0.313 | 0.618 | 0.515 | 0.386 | 0.37 | 0.578 | 0.451 | 0.453 | 0.505 | 0.67 | 0.754 | 0.574 | 0.567
QFLMKYVWSAP [ABCD1_Y337_S342P] | 0.834 | 0.674 | 0.634 | 0.738 | 0.429 | 1.34 | 0.836 | 0.562 | 1.68 | 1.03 | 0.61 | 1.63 | 0.749 | 0.941 | 0.653 | 0.595
GGPAGYLWRAS [PKLR_Y38_R40W] | 0.454 | 0.371 | 0.413 | 0.439 | 0.344 | 0.601 | 0.392 | 0.384 | 0.683 | 0.505 | 0.392 | 0.941 | 0.529 | 0.981 | 0.729 | 0.594
SVVEPYEPPEV [TP53_Y220_V218E] | 0.541 | 0.472 | 0.521 | 0.533 | 0.4 | 0.985 | 0.462 | 0.741 | 1.29 | 0.654 | 0.442 | 1.1 | 0.601 | 1.13 | 0.726 | 0.608
PGVNFYFRVSA | 0.914 | 0.817 | 1.14 | 0.759 | 0.599 | 1.53 | 0.708 | 0.653 | 1.73 | 1.88 | 0.743 | 2.13 | 1.37 | 0.759 | 0.701 | 0.424
NPSYNYEIVNR [DYNC1H1_Y3379] | 13 | 0.737 | 0.552 | 6.48 | 0.519 | 0.656 | 1.26 | 0.479 | 0.898 | 0.572 | 0.725 | 0.776 | 0.562 | 0.675 | 0.602 | 0.82
QEIATHRRLLE [KRT14_Y415_Y415H] | 0.403 | 0.508 | 0.529 | 0.469 | 0.43 | 0.575 | 0.711 | 0.576 | 0.692 | 1.09 | 0.69 | 1.06 | 0.695 | 0.978 | 0.722 | 0.543
QNTGHYSSDNT [TMEFF2_Y361] | 0.446 | 0.544 | 0.474 | 0.442 | 0.704 | 0.443 | 0.43 | 0.545 | 0.461 | 0.691 | 0.544 | 0.532 | 0.49 | 0.581 | 0.506 | 0.347
LHAALYERKLL [TTLL5_Y542] | 1.27 | 0.772 | 0.896 | 0.798 | 0.479 | 1.04 | 0.63 | 1.12 | 1.43 | 1.13 | 0.544 | 1.91 | 0.934 | 0.621 | 0.835 | 0.622
NYGTNYRVGSS [CPO_Y278_K273N] | 0.493 | 0.465 | 0.357 | 0.681 | 0.425 | 0.441 | 0.719 | 0.463 | 0.458 | 0.389 | 0.368 | 0.503 | 0.372 | 0.924 | 0.639 | 0.55
GGGFGYQKTRK [DDX18_Y643_K647R] | 0.629 | 0.393 | 0.422 | 0.302 | 0.492 | 0.57 | 0.422 | 0.401 | 0.597 | 0.46 | 0.514 | 0.613 | 0.719 | 0.976 | 0.461 | 0.536
YHLLPYTIRAM [PARS2_Y93_V95I] | 1.17 | 9.37 | 16.6 | 0.873 | 5.16 | 7.24 | 0.464 | 3.83 | 1.14 | 13.8 | 10.9 | 0.83 | 25.4 | 0.994 | 1.14 | 6.08
DPMNTYARPAE [SGMS2_Y24_T21M] | 0.381 | 0.576 | 0.475 | 0.476 | 0.538 | 0.771 | 0.504 | 0.434 | 0.878 | 0.542 | 0.46 | 0.883 | 0.792 | 0.732 | 0.605 | 1.73
QSSALYEDCFL [ASS1_Y83_R86C_YF] | 10.4 | 2.28 | 0.852 | 7.25 | 4.69 | 1.96 | 16.4 | 3.02 | 1.92 | 0.785 | 4.12 | 2.83 | 1.15 | 1.13 | 0.794 | 0.831
YRDMDYRSYPR [RBM10_Y41] | 0.477 | 0.4 | 2.3 | 0.475 | 0.547 | 0.55 | 0.415 | 0.402 | 0.64 | 1.37 | 0.519 | 0.895 | 0.607 | 0.87 | 0.707 | 0.941
SVTRTYSPALN [TP53_Y126_C124R] | 0.313 | 0.345 | 0.394 | 0.378 | 0.399 | 0.429 | 0.485 | 0.384 | 0.445 | 0.418 | 0.313 | 0.522 | 0.427 | 0.961 | 0.579 | 0.424

Sequence | phosphorylation enrichment (EPHB1) | phosphorylation enrichment (Hck) | phosphorylation enrichment (FGFR1) | phosphorylation enrichment (EPHB2) | phosphorylation enrichment (c-Src) | phosphorylation enrichment (Jak2) | phosphorylation enrichment (Fer (mouse)) | phosphorylation enrichment (Fyn) | phosphorylation enrichment (AncSZ) | phosphorylation enrichment (FGFR3) | phosphorylation enrichment (MERTK) | phosphorylation enrichment (Fes) | phosphorylation enrichment (c-Abl (mouse)) | SH2 binding enrichment (Grb2 SH2) | SH2 binding enrichment (SHP2-C SH2) | SH2 binding enrichment (c-Src SH2)
FGSVDYWEKFF [EEF1AKNMT_Y16] | 0.633 | 0.55 | 0.909 | 0.587 | 0.523 | 1.1 | 0.506 | 0.499 | 1.16 | 1.05 | 0.457 | 1.23 | 0.841 | 0.749 | 0.759 | 0.493
DFNPNYCFAGK [ALK_Y1096_YF] | 1.72 | 0.444 | 0.742 | 0.989 | 0.684 | 1.21 | 0.742 | 0.549 | 1.67 | 0.887 | 1.04 | 1.28 | 0.921 | 0.792 | 0.625 | 0.533
YVSLIYTNYEA [GSTP1_Y109_I105V] | 3.04 | 3.62 | 6.43 | 2.87 | 4.34 | 1.32 | 3.36 | 5.04 | 1.84 | 5.46 | 4.74 | 1.36 | 1.87 | 1.18 | 4.37 | 3.42
ITRDIYETDYY [INSR_Y1185_M1180I] | 1.45 | 1.19 | 2.03 | 1.55 | 2.76 | 1.09 | 0.72 | 1.58 | 2.67 | 1.95 | 0.828 | 1.47 | 0.722 | 0.854 | 0.695 | 1.1
SVVVPYEPPEA [TP53_Y220_V225A] | 0.61 | 0.54 | 0.496 | 0.536 | 0.574 | 1.1 | 0.593 | 0.483 | 1.28 | 0.738 | 0.54 | 1.19 | 0.859 | 0.967 | 0.675 | 0.795
SLTGAYTSGIP [POM121C_Y378] | 0.299 | 0.357 | 0.494 | 0.393 | 0.326 | 0.44 | 0.306 | 0.376 | 0.443 | 0.408 | 0.349 | 0.533 | 0.52 | 0.828 | 0.718 | 0.448
ISRDVYSTDFF [NTRK2_Y702_M697I_YF] | 0.866 | 1.35 | 0.934 | 0.819 | 2.84 | 0.785 | 0.568 | 3.12 | 0.903 | 0.855 | 5.74 | 0.929 | 0.666 | 0.712 | 0.715 | 0.505
FLELNYKEDEF [MME_Y502_YF] | 0.612 | 0.552 | 0.565 | 0.569 | 0.349 | 0.848 | 0.524 | 0.461 | 1.34 | 0.633 | 0.344 | 1.05 | 0.589 | 0.856 | 0.773 | 0.585
EEQKKNYNAMK [SCN5A_Y1494_Y1494N] | 0.389 | 0.351 | 0.433 | 0.364 | 0.415 | 0.55 | 0.336 | 0.291 | 0.572 | 0.399 | 0.395 | 0.663 | 0.497 | 0.815 | 0.595 | 0.443
KPSLKYVTFGN [GALNTL5_Y404_G401S_YF] | 0.453 | 0.488 | 0.396 | 0.453 | 0.504 | 0.496 | 0.461 | 0.515 | 0.736 | 0.569 | 0.435 | 0.75 | 0.467 | 0.68 | 0.697 | 0.575
DDEVFYSPLSL [OTC_Y317_R320L] | 0.495 | 7.22 | 3.14 | 0.598 | 5.55 | 1.28 | 11.1 | 5.08 | 2 | 2.76 | 5.35 | 1.2 | 2.96 | 0.777 | 0.588 | 0.38
GGFTCYSDGKK [PROS1_Y266_C267S_YF] | 0.689 | 0.55 | 0.555 | 0.586 | 0.471 | 1.37 | 0.654 | 0.55 | 1.3 | 0.933 | 0.437 | 1.51 | 0.856 | 0.711 | 0.547 | 0.317
QTSSNYDDAMQ [ZNF281_Y531_I527T] | 0.825 | 0.57 | 0.86 | 1.14 | 0.44 | 0.884 | 0.741 | 0.756 | 1.06 | 0.975 | 0.58 | 1.02 | 0.476 | 0.823 | 0.716 | 0.794
VIEQSYNETWL [SLC2A4_Y56] | 0.567 | 0.512 | 0.621 | 0.645 | 0.572 | 1.1 | 1.25 | 0.558 | 1.17 | 0.827 | 0.436 | 1.23 | 0.803 | 0.713 | 0.68 | 0.535
ETAVHYIHDGI [GATD3A_Y250_L248V] | 0.419 | 0.399 | 0.445 | 0.43 | 0.461 | 0.649 | 0.426 | 0.389 | 0.631 | 0.543 | 0.453 | 0.726 | 0.606 | 0.678 | 0.465 | 0.504
GCKNRYDKDKP [THAP1_Y14] | 0.506 | 0.596 | 0.557 | 0.474 | 0.591 | 0.691 | 0.745 | 0.535 | 0.655 | 0.804 | 0.482 | 0.928 | 0.752 | 1.36 | 0.768 | 0.949
